Assay results from patent US20220064294A1.

Molecular target: mouse TIGIT, full length, on CHO-K1 cells (mouse) (UniProt P86176)
Test: flow cytometry, CHO-K1 cells transiently transfected with mouse TIGIT; target taken from the legend paragraph 32 and from paragraph 286 (FIG. 4A = mouse TIGIT); paragraph 286 however names GNE10A7, not G1GD7, as the control for mouse TIGIT

mouse TIGIT, full length, on CHO-K1 cells (mouse), sequence (P86176 29-249 limits assumed): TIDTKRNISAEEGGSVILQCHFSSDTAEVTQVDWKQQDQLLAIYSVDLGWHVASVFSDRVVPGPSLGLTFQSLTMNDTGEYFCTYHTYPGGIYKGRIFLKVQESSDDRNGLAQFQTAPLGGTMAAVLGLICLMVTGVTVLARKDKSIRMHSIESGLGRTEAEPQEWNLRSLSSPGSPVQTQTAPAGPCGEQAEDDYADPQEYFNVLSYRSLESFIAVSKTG

EC50 (read off the curve): 0.8 nM
Substance: eBioscience G1GD7 (antibody)
